This is an account of results in paper PMC5440646, “T Cell Costimulation by CD6 Is Dependent on Bivalent Binding of a GADS/SLP-76 Complex” (Molecular and Cellular Biology, 2017).

Read-outs that look alike come from different tables or passages of the source.

The target of test [1] is SLP-76 proline-rich motif (Homo sapiens) (UniProt Q13094). The conditions noted are these: cited from earlier work.
The target is the same in test [2]. The following applies: cited from earlier work. The source holds these as a separate data set.
Test [3] deals with long CD6 peptide phosphorylated at Y662 (human). Put plainly: SPR; biotinylated long CD6 peptides immobilised at ~50 response units on streptavidin-coated CM5 chips, BIAcore 3000; SH2 domains injected at 10 μl/min at 37°C; equilibrium binding, 1:1 Langmuir. For orientation: In SPR one partner is held on a chip, and binding of the other changes the refractive index at the surface.
Chain of long CD6 peptide phosphorylated at Y662 (human) (P30203 622-668): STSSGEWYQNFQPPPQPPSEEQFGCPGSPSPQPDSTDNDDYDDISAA

Test [4] deals with long CD6 peptide phosphorylated at Y629 and Y662 (human). Described as above.
Chain of long CD6 peptide phosphorylated at Y629 and Y662 (human) (P30203 622-668): as above
The target of test [5] is GADS (UniProt O75791). Briefly: CD6 MAb immunoprecipitation, Western blot. The conditions noted are these: reference: wild-type CD6-EGFP; sites Y629.
Test [6] addresses long CD6 peptide phosphorylated at Y629 (human). Briefly: SPR; biotinylated long CD6 peptides immobilised at ~50 response units on streptavidin-coated CM5 chips, BIAcore 3000; SH2 domains injected at 10 μl/min at 37°C; equilibrium binding, 1:1 Langmuir.
Test [7] has as its target SLP-76 (UniProt Q13094). Briefly: CD6 MAb immunoprecipitation, Western blot. The conditions noted are these: reference: wild-type CD6-EGFP; sites Y662.

Chain of GADS C-terminal SH3 (O75791 271-330): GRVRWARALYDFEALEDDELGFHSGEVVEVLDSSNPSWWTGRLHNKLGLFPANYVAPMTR
Chain of long CD6 peptide phosphorylated at Y629 (human) (P30203 622-668): as the sequence (P30203 622-668) above
Chain of GRB2 C-terminal SH3 (P62993 156-215): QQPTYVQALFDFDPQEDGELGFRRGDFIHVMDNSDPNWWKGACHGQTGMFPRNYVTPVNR

The Kd is the concentration at which binding is half-saturated. On to “GRB2 C-terminal SH3 (from UniProt P62993)”, for which the Kd in test [1] is 10000 nM.

As for “GADS C-terminal SH3 (from UniProt O75791)”, the Kd in test [2] was 200 nM.

Consider “SLP-76 SH2 domain, His-tagged (from UniProt Q13094 422-530) (domain or fragment)”, for which the Kd in test [3] and in test [4] was 300 to 2000 nM in each case.

Take CD6 (from UniProt P30203) Y629F: the “binding against the reference” value in test [5] is “weaker”.

“GADS SH2 domain, His-tagged (from UniProt O75791 58-149) (domain or fragment)”: the Kd in test [4] lay within 100 to 2000 nM; in test [6] it was 200 to 600 nM.

As for CD6 (from UniProt P30203) Y662F, the “binding against the reference” value in test [7] is on record as “weaker”.
